Laboratory results published in patent US8575303.

Experiments:
[1] = molecular target: unlabeled anti-CD4 (RPA-T4 clone, BD Biosciences) raised in mouse against the human antigen; assay: flow cytometry on Cyto-trol cells pre-labeled with mouse anti-CD4 primary (Example 36, FIG. 20B)
[2] = molecular target: Mouse IgG; assay: Luminex xMap bead sandwich assay, mouse IgG titration, detection with streptavidin-conjugated polymer
[3] = molecular target: Mouse IgG; assay: Luminex xMap bead sandwich assay, mouse IgG titration, detection with streptavidin-phycoerythrin at 4 ug/mL

stain index, fold over a Pacific Blue control conjugate of the same antibody [1] [fold]	MFI/zero (fluorescence highest point in standard curve/fluorescence zero concentration of analyte) [2]	MFI/zero (fluorescence highest point in standard curve/fluorescence zero concentration of analyte) [3]	Substance
> 4	–	–	405 polymer-goat anti-mouse conjugate (amine-functionalized 405 polymer conjugated to goat anti-mouse IgG purified antibody)
–	26.6	21.8	Donkey anti-mouse IgG antibody covalently conjugated to xMap beads
